From publication PMC12322997, “Asxl1 regulates optic cup development through interaction with Lhx2 and epigenetic modulation of Wnt signaling” (Animal Cells and Systems, 2025)

Molecular target: T1, GST-mAsxl1 (aa 1193-1514) (mouse, UniProt P59598 1193-1514)
T1 construct: also called GST-fused Asxl1 protein; source: E. coli, purified (glutathione-Sepharose beads)
T1 sequence (looked up): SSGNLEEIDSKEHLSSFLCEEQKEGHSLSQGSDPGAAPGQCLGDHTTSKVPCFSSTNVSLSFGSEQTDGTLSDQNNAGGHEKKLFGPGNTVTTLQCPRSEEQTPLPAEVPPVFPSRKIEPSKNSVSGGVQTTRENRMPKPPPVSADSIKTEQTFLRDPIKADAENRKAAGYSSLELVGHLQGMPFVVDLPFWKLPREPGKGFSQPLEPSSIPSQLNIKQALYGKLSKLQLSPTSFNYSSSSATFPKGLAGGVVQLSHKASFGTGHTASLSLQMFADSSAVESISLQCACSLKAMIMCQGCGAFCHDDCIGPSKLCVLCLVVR
Test: pull-down; GST pull-down; GST-mAsxl1 on glutathione-Sepharose, His-hLHX2 purified on Ni-NTA; bound protein detected by anti-His Western blot
Conditions: both partners purified

binding result: binds
B1: His-hLhx2 (aa 42-221) (domain or fragment, human, UniProt P50458 42-221, looked up)
chain: MPSISSDRAALCAGCGGKISDRYYLLAVDKQWHMRCLKCCECKLNLESELTCFSKDGSIYCKEDYYRRFSVQRCARCHLGISASEMVMRARDLVYHLNCFTCTTCNKMLTTGDHFGMKDSLVYCRLHFEALLQGEYPAHFNHADVAAAAAAAAAAKSAGLGAAGANPLGLPYYNGVGTVQ
notes: LHX2, human (hLHX2), residues 42-221; also called His-tagged Lhx2 protein; source: E. coli, purified (Ni-NTA agarose beads)
